B1: HDV Ribozyme (parent)
chain: GGCCGGCAUGGUCCCAGCCUCCUCGCUGGCGCCGGCUGGGCAACAUUCCGAGGGGACCGUCCCCUCGGUAAUGGCGAAUGGGACCCA

Variants of: B1
Assay: self-cleavage, relative activity (ratio to wild type); higher = more cleavage; co-transcriptional

First: C3A U20G
Second: C3A U20A
The self-cleavage of the first is lower: 0.0163 for the first, 0.0683 for the second.

Compared with G2U U9G, G2U U9C is higher in self-cleavage: 0.101 for the first, 0.104 for the second.

Going from C3G G67C to C3G G67A, the self-cleavage rises from 0.524 to 0.682.

First: C3A A78U
Second: C3G G10A
The self-cleavage of the first is lower: 0.0627 for the first, 0.107 for the second.

Compared with G2U U37C, G2U U37A is lower in self-cleavage: 0.0801 for the first, 0.0378 for the second.

Compared with G2U U37G, C3G G29C is lower in self-cleavage: 0.0422 for the first, 0.0396 for the second.

First: C3G G76A
Second: C3G G76U
The self-cleavage of the first is higher: 0.984 for the first, 0.926 for the second.

Compared with C3G G76C, C3G C61G is lower in self-cleavage: 0.65 for the first, 0.561 for the second.

First: C3U C18A
Second: C3U C18U
The self-cleavage of the first is lower: 0.0782 for the first, 0.43 for the second.

Going from C3G C14U to C3G C14G, the self-cleavage falls from 0.817 to 0.268.

Going from C3G U9G to C3G U9A, the self-cleavage rises from 0.789 to 0.799.

First: C3U C14A
Second: C3A A45G
The self-cleavage of the first is higher: 0.594 for the first, 0.469 for the second.

First: C3A A45C
Second: G2U G81A
The self-cleavage of the first is higher: 0.0482 for the first, 0 for the second.

Compared with G2U U72A, C3A C44U is higher in self-cleavage: 0.0287 for the first, 0.145 for the second.

Going from C3G G52A to C3U C41A, the self-cleavage rises from 0.702 to 0.807.

Compared with C3U C41G, C3G C62G is lower in self-cleavage: 0.499 for the first, 0.169 for the second.

Going from C3G C62A to C3G C66A, the self-cleavage falls from 0.789 to 0.585.

Compared with C3G A16C, C3G A16U is higher in self-cleavage: 0.208 for the first, 0.655 for the second.

Going from C3U A43G to C3U A43C, the self-cleavage falls from 0.342 to 0.293.

Going from C3U A43U to C3A A83U, the self-cleavage falls from 0.496 to 0.0821.

Going from C3A G34U to C3A G34C, the self-cleavage falls from 0.109 to 0.0903.

First: C3A C61U
Second: C3A C30U
The self-cleavage of the first is higher: 0.554 for the first, 0.143 for the second.

Compared with C3A C30A, C3A C26G is higher in self-cleavage: 0.0393 for the first, 0.415 for the second.

First: C3G G6U
Second: C3A C14A
The self-cleavage of the first is lower: 0.0665 for the first, 0.313 for the second.

Compared with C3A C14U, C3G C26G is higher in self-cleavage: 0.697 for the first, 0.753 for the second.

First: C3G C15U
Second: C3U C33U
The self-cleavage of the first is lower: 0.532 for the first, 0.769 for the second.

Compared with C3U C13A, C3G G35U is higher in self-cleavage: 0.138 for the first, 1.33 for the second.

First: C3U C22A
Second: C3U C22G
The self-cleavage of the first is higher: 0.161 for the first, 0.0193 for the second.

G2U G59U and G2U G59A are the same in self-cleavage: 0.128 for the first, 0.128 for the second.

G2U U47C and G2U U47A are the same in self-cleavage: 0 for the first, 0 for the second.

Going from G2U U47G to C3G C24U, the self-cleavage rises from 0.119 to 0.196.

Going from C3G C24A to C3G C24G, the self-cleavage rises from 0 to 0.102.

Going from C3G C57U to C3G C57G, the self-cleavage rises from 0.75 to 0.891.

First: C3U A78C
Second: C3A G29U
The self-cleavage of the first is higher: 0.04 for the first, 0.0316 for the second.

First: C3A G29C
Second: C3G G50A
The self-cleavage of the first is lower: 0 for the first, 0.589 for the second.

First: C3A A16G
Second: C3A A16C
The self-cleavage of the first is higher: 0.401 for the first, 0.0875 for the second.

Going from C3G A71C to C3A C33U, the self-cleavage falls from 0.261 to 0.166.

First: C3G G17U
Second: C3G G17A
The self-cleavage of the first is lower: 0.073 for the first, 0.102 for the second.

Going from C3U C21A to C3U C21U, the self-cleavage falls from 0.122 to 0.101.

Compared with C3A C15A, C3A C15G is lower in self-cleavage: 0.306 for the first, 0.237 for the second.

C3A C86U and C3A C86G are the same in self-cleavage: 0.745 for the first, 0.745 for the second.

Compared with C3A C86A, C3A A77C is lower in self-cleavage: 0.535 for the first, 0.171 for the second.

First: C3A A77U
Second: C3A A77G
The self-cleavage of the first is lower: 0.224 for the first, 0.313 for the second.

Compared with C3U C44A, C3A G31U is lower in self-cleavage: 0.492 for the first, 0.0339 for the second.

Compared with C3G U27C, C3U A8G is higher in self-cleavage: 0.133 for the first, 0.554 for the second.

Compared with C3U A8U, C3U A70C is lower in self-cleavage: 0.656 for the first, 0.566 for the second.

First: G2U G76C
Second: G2U G76U
The self-cleavage of the first is lower: 0.0279 for the first, 0.0762 for the second.

Going from C3A G82U to C3A G82C, the self-cleavage falls from 0.0831 to 0.056.

Going from C3U A56G to C3A U65G, the self-cleavage falls from 0.831 to 0.718.

Compared with C3A C24U, C3A C24A is lower in self-cleavage: 0.0755 for the first, 0.0268 for the second.

Compared with G2U U60G, G2U U60A is lower in self-cleavage: 0.0831 for the first, 0.0396 for the second.

First: C3G C18G
Second: C3G C18U
The self-cleavage of the first is higher: 0.0475 for the first, 0.04 for the second.

Going from C3G C18A to C3G U47G, the self-cleavage rises from 0.0542 to 0.457.

First: C3G U47C
Second: C3G U47A
The self-cleavage of the first is lower: 0.54 for the first, 0.594 for the second.

First: C3A C19A
Second: C3A C19U
The self-cleavage of the first is higher: 0.0199 for the first, 0.0134 for the second.

Compared with C3G A70U, C3G A70G is lower in self-cleavage: 0.636 for the first, 0.475 for the second.

Compared with C3A G53U, C3A G53C is higher in self-cleavage: 0.527 for the first, 0.635 for the second.

Going from C3A C57A to C3A C57G, the self-cleavage falls from 0.659 to 0.587.

Going from C3U A83G to C3U A83C, the self-cleavage falls from 0.554 to 0.318.

First: C3A C21A
Second: C3A C21U
The self-cleavage of the first is higher: 0.0339 for the first, 0.0314 for the second.

Going from C3G C58G to G2U U12A, the self-cleavage falls from 0.796 to 0.17.

First: C3G G34U
Second: C3U C58G
The self-cleavage of the first is lower: 0.323 for the first, 0.767 for the second.

Compared with C3U C58A, C3G U37G is lower in self-cleavage: 0.818 for the first, 0.123 for the second.

First: C3G U37A
Second: C3A U9A
The self-cleavage of the first is lower: 0 for the first, 0.657 for the second.

Compared with C3A C63U, C3A C63G is lower in self-cleavage: 0.559 for the first, 0.285 for the second.

Going from C3G U69A to C3G C48A, the self-cleavage rises from 0.582 to 0.698.

Compared with C3G C48G, C3G C48U is higher in self-cleavage: 0.695 for the first, 0.736 for the second.

Going from C3G C41G to C3G U72A, the self-cleavage falls from 0.241 to 0.237.

First: C3G U72C
Second: C3G A45C
The self-cleavage of the first is higher: 0.267 for the first, 0.113 for the second.

Compared with C3G A45U, C3G A45G is higher in self-cleavage: 0.299 for the first, 0.816 for the second.

First: C3G C49A
Second: C3G C49U
The self-cleavage of the first is higher: 0.736 for the first, 0.673 for the second.

First: C3U A87U
Second: C3A C64U
The self-cleavage of the first is higher: 0.725 for the first, 0.65 for the second.

Going from C3U C61U to C3U C32A, the self-cleavage falls from 0.923 to 0.053.

Going from C3U C32G to C3A U72A, the self-cleavage falls from 0.0769 to 0.07.

Going from C3G A43U to C3G A43C, the self-cleavage rises from 0.233 to 0.261.

First: C3U C49G
Second: C3U C49A
The self-cleavage of the first is lower: 0.68 for the first, 0.843 for the second.

Going from C3A A70U to G2U G68A, the self-cleavage falls from 0.437 to 0.0264.

Going from G2U G82A to C3G G31C, the self-cleavage rises from 0.0189 to 0.0455.

Compared with C3G G31A, C3A C75U is higher in self-cleavage: 0.0608 for the first, 0.128 for the second.

Compared with C3U C4U, C3U C4G is lower in self-cleavage: 0.655 for the first, 0 for the second.

First: C3U A71U
Second: C3U A71C
The self-cleavage of the first is higher: 0.742 for the first, 0.427 for the second.

First: C3G C22U
Second: C3G C22A
The self-cleavage of the first is higher: 0.179 for the first, 0.119 for the second.

Going from C3G C22G to C3G G54A, the self-cleavage rises from 0 to 0.683.

Work on C3G G54C yielded a self-cleavage of 0.674.

Source: the RNAGym collection of RNA variant scans (doi:10.7554/elife.80360)
